# Patent US20240034786A1 (WUXI BIOLOGICS IRELAND, published 2024)
# T1: WBP319-hPro3.ECD.hFcHis (R&D) (human, UniProt P19022 160-724)
# T1 construct: extracellular domain; Bought protein; the text calls it ECD.His, the code says hFcHis; also called human N-Cadherin.ECD.His; Human N-Cadherin; not shown: human Fc and His tag by the code hFcHis
# T1 sequence (looked up): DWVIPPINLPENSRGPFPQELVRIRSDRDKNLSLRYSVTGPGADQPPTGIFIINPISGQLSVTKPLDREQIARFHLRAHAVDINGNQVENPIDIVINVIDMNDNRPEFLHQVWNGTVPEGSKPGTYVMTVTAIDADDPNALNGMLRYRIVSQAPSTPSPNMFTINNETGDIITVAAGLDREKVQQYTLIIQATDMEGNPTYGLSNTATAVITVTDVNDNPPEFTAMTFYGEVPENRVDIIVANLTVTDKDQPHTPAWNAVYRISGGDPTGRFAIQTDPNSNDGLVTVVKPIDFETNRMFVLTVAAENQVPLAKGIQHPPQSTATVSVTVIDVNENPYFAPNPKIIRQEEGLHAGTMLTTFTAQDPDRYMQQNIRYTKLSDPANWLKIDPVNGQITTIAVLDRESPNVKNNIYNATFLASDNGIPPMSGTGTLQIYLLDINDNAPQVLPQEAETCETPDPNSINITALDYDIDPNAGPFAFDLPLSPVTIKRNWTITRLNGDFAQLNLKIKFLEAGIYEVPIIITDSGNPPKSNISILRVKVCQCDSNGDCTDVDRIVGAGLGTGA
# T2: WBP319-hPro2.ECD.His (R&D) (human, UniProt P12830 155-709)
# T2 construct: extracellular domain; Bought protein; also called human E-Cadherin.ECD.His; Human E-Cadherin
# T2 sequence (looked up): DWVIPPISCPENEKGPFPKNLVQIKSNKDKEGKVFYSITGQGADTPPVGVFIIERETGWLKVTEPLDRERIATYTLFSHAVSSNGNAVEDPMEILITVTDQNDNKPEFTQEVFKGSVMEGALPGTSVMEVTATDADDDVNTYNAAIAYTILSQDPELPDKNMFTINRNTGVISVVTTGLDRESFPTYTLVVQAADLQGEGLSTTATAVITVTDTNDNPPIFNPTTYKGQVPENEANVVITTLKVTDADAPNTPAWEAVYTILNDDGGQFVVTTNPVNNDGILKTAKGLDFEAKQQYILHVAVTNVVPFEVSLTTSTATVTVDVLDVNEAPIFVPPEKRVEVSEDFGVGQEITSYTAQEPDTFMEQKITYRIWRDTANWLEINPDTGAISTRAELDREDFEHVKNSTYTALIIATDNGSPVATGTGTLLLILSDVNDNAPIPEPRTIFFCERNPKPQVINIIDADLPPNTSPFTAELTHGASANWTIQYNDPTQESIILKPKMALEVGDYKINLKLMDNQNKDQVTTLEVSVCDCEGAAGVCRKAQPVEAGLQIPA
# B1: W3195-1.53.1-p1-uIgG1L (antibody)
# heavy: not shown
# light: SYELTQPPSVSVSPGQTAQITCSGDKLGDKFASWYQQKSGQSPVVVIYQDNKRPSGFPERFSGSNSGNTATLTISGTQAMDEADYYCQAWDSSIVVFGGGTKLTVLGQPKAAPSVTLFPPSSEELQANKATLVCLISDFYPGAVTVAWKADSSPVKAGVETTTPSKQSNNKYAASSYLSLTPEQWKSHRSYSCQVTHEGSTVEKTVAPTECS
# notes: also called W3195-p1 antibody
# Experiments:
# [1] = biological target: Human P-cadherin on cells (human, UniProt P22223 108-829); test: cell-based or functional assay
# [2] = biological target: T1, WBP319-hPro3.ECD.hFcHis (R&D); test: capture ELISA, antigen held by anti-His antibody
# Experimental: (§1) The binding of the antibodies to human E-Cadherin.ECD.His (R&D-8505-NC-050, WBP319-hPro2.ECD.His (R&D)) and human N-Cadherin.ECD.His (R&D-1388-NC-050, WBP319-hPro3.ECD.hFcHis (R&D)) were tested by a captured protein binding ELISA. 96-well high protein binding ELISA plates (Nunc MaxiSorp, ThermoFisher, Cat #: 442404) were coated overnight at 4° C. with 1 μg/mL capture antibody (THETM His Tag mAb, GenScript, Cat #: A00186) in Carbonate-bicarbonate buffer (20 mM Na2CO3, 180 mM NaHCO3, pH=9.2). All wells were washed three time with 300 μL per well of PBS/0.5‰ Tween-20 (v/v) and all the following wash steps in the assay were performed the same. The wells were then blocked for one hour with 3% milk (Shanghai Dingguo-DH220)/1×PBS (Ca+/Mg+) (Gibco, #14040-117) and washed three times, followed by binding of 1 μg/mL antigens in 3% milk/1×PBS (Ca+/Mg+) for 1 hour at room temperature and three washes afterwards. […]
# (§2) For the binding detection, 100 μL Tetramethylbenzidine (TMB) Substrate solution (Invitrogen, Cat #: 002023) was added to all wells for 10 minutes before stopping the reaction with 100 μL 2M HCl. The extent of the testing Abs binding to WBP319-hPro2.ECD.His (R&D)) and WBP319-hPro3.ECD.hFcHis (R&D) were determined by measuring the OD450 absorbance using the SpectraMax® M5e microplate reader. […]
# [3] = biological target: T2, WBP319-hPro2.ECD.His (R&D); test: capture ELISA, antigen held by anti-His antibody
# Experimental: as §1, §2
# Sequence of Human P-cadherin on cells (P22223 108-829): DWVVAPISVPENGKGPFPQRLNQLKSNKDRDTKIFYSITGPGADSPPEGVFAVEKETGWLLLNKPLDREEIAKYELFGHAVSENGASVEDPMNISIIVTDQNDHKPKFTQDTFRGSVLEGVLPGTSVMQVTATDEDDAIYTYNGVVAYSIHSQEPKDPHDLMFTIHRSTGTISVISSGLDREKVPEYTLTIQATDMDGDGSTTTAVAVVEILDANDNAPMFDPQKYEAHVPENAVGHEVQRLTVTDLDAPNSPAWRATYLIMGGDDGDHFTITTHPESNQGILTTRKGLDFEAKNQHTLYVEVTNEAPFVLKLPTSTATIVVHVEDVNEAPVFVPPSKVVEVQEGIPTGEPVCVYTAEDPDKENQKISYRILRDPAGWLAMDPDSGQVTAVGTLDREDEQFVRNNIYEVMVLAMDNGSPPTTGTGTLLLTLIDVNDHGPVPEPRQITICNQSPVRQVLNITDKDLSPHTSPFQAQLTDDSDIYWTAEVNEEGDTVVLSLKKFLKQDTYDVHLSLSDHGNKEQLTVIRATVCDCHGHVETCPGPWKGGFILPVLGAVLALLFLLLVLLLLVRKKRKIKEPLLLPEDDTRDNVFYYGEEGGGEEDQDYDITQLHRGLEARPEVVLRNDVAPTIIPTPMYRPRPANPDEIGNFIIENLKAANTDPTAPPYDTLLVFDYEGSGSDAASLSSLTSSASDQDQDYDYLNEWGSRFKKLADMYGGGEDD
binder,measurement,setting,value
B1,"cell aggregation assay on DU-145, EC50",[1],0.00039 µM
same,"cell aggregation assay on DU-145, Max Fold change",[1],1.75 fold
same,EC50,[2],> 0.1 µM
same,EC50,[3],> 0.1 µM
